{"source": "paper PMC9620470", "about": "(Cell chemical biology, 2022)", "binders": {"B1": {"name": "GST-GMPR, bacterially purified (enzyme, human)", "chain": "MPRIDADLKLDFKDVLLRPKRSSLKSRAEVDLERTFTFRNSKQTYSGIPIIVANMDTVGTFEMAAVMSQHSMFTAIHKHYSLDDWKLFATNHPECLQNVAVSSGSGQNDLEKMTSILEAVPQVKFICLDVANGYSEHFVEFVKLVRAKFPEHTIMAGNVVTGEMVEELILSGADIIKVGVGPGSVCTTRTKTGVGYPQLSAVIECADSAHGLKGHIISDGGCTCPGDVAKAFGAGADFVMLGGMFSGHTECAGEVFERNGRKLKLFYGMSSDTAMNKHAGGVAEYRASEGKTVEVPYKGDVENTILDILGGLRSTCTYVGAAKLKELSRRATFIRVTQQHNTVFS"}, "B2": {"name": "GST-GMPR^Y267F, bacterially purified (enzyme, human)", "chain": "B1 chain with Y267F"}}, "target": "EPHA4-Flag protein purified from transfected 293FT cells (human, UniProt P54764 20-986)", "sequence (P54764 20-986)": "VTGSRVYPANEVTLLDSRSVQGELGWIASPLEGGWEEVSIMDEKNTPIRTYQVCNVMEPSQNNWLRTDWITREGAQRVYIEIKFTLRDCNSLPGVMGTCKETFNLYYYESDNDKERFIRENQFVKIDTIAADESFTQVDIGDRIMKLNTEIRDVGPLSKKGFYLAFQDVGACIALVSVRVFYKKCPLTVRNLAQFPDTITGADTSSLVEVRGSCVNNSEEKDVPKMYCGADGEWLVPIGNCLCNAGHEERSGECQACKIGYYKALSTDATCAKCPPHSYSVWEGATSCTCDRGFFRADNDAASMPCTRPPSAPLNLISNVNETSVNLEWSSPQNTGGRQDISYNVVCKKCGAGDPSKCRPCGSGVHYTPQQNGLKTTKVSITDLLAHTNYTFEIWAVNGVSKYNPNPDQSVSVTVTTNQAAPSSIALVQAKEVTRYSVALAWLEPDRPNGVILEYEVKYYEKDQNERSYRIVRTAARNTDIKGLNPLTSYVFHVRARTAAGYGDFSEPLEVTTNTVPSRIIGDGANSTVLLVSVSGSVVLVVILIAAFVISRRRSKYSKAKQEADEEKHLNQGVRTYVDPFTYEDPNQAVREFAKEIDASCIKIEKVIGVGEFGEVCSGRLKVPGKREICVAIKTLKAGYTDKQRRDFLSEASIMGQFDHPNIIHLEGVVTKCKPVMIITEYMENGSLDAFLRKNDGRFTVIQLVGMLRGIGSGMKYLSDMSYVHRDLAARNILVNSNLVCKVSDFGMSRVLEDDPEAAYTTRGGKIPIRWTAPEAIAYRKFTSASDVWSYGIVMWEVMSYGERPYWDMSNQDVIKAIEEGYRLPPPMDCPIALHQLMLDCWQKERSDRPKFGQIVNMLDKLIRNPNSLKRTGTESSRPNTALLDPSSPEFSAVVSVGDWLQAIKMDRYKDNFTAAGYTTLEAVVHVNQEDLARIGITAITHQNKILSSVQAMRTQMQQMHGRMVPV", "experiment": "pull-down", "note": "Numbering of substitutions follows the chain as printed. In names and notes the source's numbering stands.", "data": [{"binder": "B1", "values": [{"measurement": "binding result", "value": "binds"}]}, {"binder": "B2", "values": [{"measurement": "binding result", "value": "binds"}]}]}
